Target: T1, B19 protein of chorioallantois vaccinia virus Ankara (CVA) (Vaccinia virus, strain Ankara (CVA), UniProt P23998 20-351)
T1 construct: also called orthopoxviral B19 protein
Assay: statement in Example 3; no assay described for IFN-β

B1: murine IFN-beta (ligand)
chain: INYKQLQLQERTNIRKCQELLEQLNGKINLTYRADFKIPMEMTEKMQKSYTAFAIQEMLQNVFLVFRNNFSSTGWNETIVVRLLDELHQQTVFLKTVLEEKQEERLTWEMSSTALHLKSYYWRVQRYLKLMKYNSYAWMVVRAEIFRNFLIIRRLTRNFQN
notes: also called IFN-β; murine IFN-β
- binding result: no binding

Reference: patent US20160376596A1 (BAVARIAN NORDIC A S, published 2016)
